Earlier results as cited in PMC8990303.
Like-named read-outs stand apart in the source and are kept apart here.

Assays:
[1] = target: Porcine pancreatic alpha-amylase (PPA) (Sus scrofa) (UniProt P00690)
[2] = target: Bovine trypsin (Bos taurus) (UniProt P00760)
[3] = target: Porcine trypsin (Sus scrofa) (UniProt P00761)
[4] = target: Porcine trypsin (Sus scrofa) (UniProt P00761); remark: listed apart in the source
[5] = target: Porcine alpha-amylase (Sus scrofa) (UniProt P00690)
[6] = target: Porcine alpha-amylase (Sus scrofa) (UniProt P00690); remark: listed apart in the source
[7] = target: Factor XIa (Homo sapiens) (UniProt P03951)
Sequence of UniProt P03951 (P03951 388-625): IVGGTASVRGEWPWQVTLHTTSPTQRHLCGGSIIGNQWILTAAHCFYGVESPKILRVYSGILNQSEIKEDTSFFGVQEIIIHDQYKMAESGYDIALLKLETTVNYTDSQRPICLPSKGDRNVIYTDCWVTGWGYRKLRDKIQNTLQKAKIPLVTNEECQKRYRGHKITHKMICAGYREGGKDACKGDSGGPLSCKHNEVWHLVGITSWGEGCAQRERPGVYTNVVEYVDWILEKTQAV

[8] = target: Factor XIIa (Homo sapiens) (UniProt P00748)
Sequence of UniProt P00748 (P00748 whole entry, looked up): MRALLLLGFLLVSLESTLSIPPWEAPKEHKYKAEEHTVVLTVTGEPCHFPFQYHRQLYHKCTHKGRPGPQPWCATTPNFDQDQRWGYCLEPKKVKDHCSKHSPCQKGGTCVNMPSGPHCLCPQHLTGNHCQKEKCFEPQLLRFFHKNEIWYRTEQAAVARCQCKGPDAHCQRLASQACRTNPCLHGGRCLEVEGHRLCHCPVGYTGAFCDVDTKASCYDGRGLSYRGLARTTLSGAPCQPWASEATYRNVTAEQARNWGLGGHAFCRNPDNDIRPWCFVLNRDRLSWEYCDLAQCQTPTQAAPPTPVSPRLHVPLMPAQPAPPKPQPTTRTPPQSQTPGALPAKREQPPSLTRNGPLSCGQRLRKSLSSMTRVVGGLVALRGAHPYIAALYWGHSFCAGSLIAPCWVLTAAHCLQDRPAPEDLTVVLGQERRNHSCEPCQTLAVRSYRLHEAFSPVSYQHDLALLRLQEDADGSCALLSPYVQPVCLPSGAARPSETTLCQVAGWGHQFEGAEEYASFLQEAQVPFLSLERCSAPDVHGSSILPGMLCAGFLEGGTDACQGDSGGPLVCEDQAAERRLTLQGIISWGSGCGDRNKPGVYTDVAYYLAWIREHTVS

[9] = target: Bovine pancreatic trypsin (Bos taurus) (UniProt P00760)
[10] = target: Human salivary alpha-amylase (HSA) (Homo sapiens) (UniProt P0DUB6)
Sequence of UniProt P0DUB6 (P0DUB6 16-511): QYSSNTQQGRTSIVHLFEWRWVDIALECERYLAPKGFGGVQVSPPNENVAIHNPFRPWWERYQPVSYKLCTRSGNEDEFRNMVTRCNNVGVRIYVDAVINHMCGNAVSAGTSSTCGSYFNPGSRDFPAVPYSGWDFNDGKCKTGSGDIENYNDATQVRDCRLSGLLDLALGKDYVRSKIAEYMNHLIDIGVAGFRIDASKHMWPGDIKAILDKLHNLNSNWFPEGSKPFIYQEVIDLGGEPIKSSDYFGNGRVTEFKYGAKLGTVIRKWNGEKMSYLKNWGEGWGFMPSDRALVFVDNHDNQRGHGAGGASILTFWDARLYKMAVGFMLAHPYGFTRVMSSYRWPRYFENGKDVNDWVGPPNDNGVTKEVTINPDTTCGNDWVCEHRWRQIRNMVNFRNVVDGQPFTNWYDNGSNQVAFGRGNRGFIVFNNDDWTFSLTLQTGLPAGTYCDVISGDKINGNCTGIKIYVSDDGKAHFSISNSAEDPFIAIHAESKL

[11] = target: Yellow mealworm alpha-amylase (TMA) (Tenebrio molitor) (UniProt P56634)
Sequence of UniProt P56634 (P56634 whole entry): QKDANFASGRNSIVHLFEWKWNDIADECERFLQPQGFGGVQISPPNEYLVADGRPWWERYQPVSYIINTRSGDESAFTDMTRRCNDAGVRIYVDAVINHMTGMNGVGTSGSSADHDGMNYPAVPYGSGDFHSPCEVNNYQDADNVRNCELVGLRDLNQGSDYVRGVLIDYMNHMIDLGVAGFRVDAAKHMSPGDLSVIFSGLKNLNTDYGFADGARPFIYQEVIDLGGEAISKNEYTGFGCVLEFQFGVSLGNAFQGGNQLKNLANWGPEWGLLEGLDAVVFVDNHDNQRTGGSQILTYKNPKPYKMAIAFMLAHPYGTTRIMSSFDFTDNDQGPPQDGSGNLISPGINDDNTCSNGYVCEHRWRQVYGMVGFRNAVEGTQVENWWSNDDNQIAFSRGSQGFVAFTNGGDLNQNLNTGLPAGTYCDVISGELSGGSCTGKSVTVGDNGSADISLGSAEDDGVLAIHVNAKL

[12] = target: Porcine pancreatic alpha-amylase (PPA) (Sus scrofa) (UniProt P00690); remark: listed apart in the source
[13] = target: Yellow mealworm alpha-amylase (TMA) (Tenebrio molitor) (UniProt P56634); remark: listed apart in the source

Sequence of UniProt P00761 (P00761 9-231): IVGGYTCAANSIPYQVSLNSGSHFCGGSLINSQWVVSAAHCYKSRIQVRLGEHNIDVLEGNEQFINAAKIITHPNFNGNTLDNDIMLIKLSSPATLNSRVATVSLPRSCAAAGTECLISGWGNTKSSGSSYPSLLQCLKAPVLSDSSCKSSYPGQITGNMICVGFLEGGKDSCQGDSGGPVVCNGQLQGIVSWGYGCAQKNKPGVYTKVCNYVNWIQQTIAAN

In the case of “Ragi bifunctional alpha-amylase/trypsin inhibitor (RBI) (from UniProt P01087)”, the Ki [1] is listed as 11 nM and the Ki [2] is listed as 1.2 nM.

For CM3 (from UniProt P17314), the Kd [3] is given as 36 nM, the Ki [4] is given as 10.4 nM and the Ki [5] is given as 600 nM. For the same substance, the Kd [6] was 340 nM.

In the case of “Corn Hageman factor inhibitor (CHFI) (from UniProt P01088)”, the Ki [7] is given as 5400 nM, the Ki [8] is given as 1 nM and the Ki [9] is given as 2.1 nM.

For “0.19 alpha-amylase inhibitor (from UniProt P01085)”, the Ki [10] is listed as 0.29 nM, the Ki [11] is listed as 0.85 nM and the Ki [12] is listed as 57.3 nM.

For “0.28 alpha-amylase inhibitor (WMAI-1) (from UniProt P01083)”, the Ki [13] is given as 0.13 nM.
